Data reported in patent publication US20240309087A1 (SHANGHAI JUNSHI BIOSCIENCES, published 2024).
“And” between values parts separate entries of the source, which are not always exact repeats. Identical values can stand only once.

T1: human CD112R on Jurkat CD112R effector cells (human, UniProt Q6DKI7 1-326)
T1 sequence (looked up): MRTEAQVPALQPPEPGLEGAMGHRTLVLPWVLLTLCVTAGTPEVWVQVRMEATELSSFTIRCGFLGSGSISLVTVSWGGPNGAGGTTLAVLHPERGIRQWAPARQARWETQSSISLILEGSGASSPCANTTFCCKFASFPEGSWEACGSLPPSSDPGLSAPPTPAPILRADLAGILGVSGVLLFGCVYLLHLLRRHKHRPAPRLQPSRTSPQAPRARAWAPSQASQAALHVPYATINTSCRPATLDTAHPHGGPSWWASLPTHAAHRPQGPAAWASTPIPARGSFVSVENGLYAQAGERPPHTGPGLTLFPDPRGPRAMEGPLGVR

T2: hCD112R mFC recombinant protein (human; murine, UniProt Q6DKI7 41-160)
T2 construct: range 41-160; expressed in 293E cells; also called hCD112R ECD mFC; hCD112R-ECD-mFC; not shown: murine IgG2a Fc domain (MX2-mFc vector)
T2 sequence (looked up): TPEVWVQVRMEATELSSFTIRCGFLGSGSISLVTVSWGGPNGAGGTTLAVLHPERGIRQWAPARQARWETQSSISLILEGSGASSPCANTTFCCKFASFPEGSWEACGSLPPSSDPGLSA

B1: Hu37 (antibody, IgG4, V domains shown)
VH: EVQLVESGGGLVQPGGSLRLSCAASGFTFSSYHMSWVRQAPGKGLELVSAINSNVISTYYLDTVKGRFTISRDNAKNSLYLQMNSLRAEDTAVYYCARHEDYYGFAMDYWGQGTLVTVSS
VL: DIVMTQSPDSLAVSLGERATINCKASQSVTNDVAWYQQKPGQPPKLLIYYVSNHYTGVPDRFSGSGSGTDFTLTISSLQAEDVAVYFCQQAYRSPWTFGQGTKLEIK
B2: Hu18 (antibody, IgG4, V domains shown)
VH: EVQLVESGGGLVKPGGSLRLSCAASGFTFSSYHMSWVRQAPGKGLELVSAISRDGDSTYYPDTVKGRFTISRDNAKNSLYLQMNSLRAEDTAVYYCSRHEDYFGFAMDSWGQGTLVTVSS
VL: EIVMTQSPPTLSLSPGERVTLSCKASQSVSNDVAWYQQKPGQAPRLLIYYVSNRFTGIPARFSGSGSGTDFTLTISSLQPEDFAVYFCQQAYRSPWTFGQGTKLEIK
notes: humanized IgG4
B3: Hu38 (antibody, IgG4, V domains shown)
VH: EVQLVESGGGLVQPGGSLRLSCAASGFTFSSYHMSWVRQAPGKGLELVSAINSNVISTYYLDTVKGRFTISRDNAKNSLYLQMNSLRAEDTAVYYCARHEDYYGFAMDYWGQGTLVTVSS
VL: AIQMTQSPSSLSASVGDRVTITCKASQSVTNDVAWYQQKPGKAPKLLIYYVSNHYTGVPSRFSGSGSGTDFTLTISSLQPEDFATYFCQQAYRSPWTFGQGTKLEIK
B4: Hu47 (antibody, IgG4, V domains shown)
VH: EVQLVESGGGLVKPGGSLRLSCAASGFTFSSYHMSWVRQAPGKGLELVSAINSNVISTYYLDTVKGRFTISRDNAKNSLYLQMNSLRAEDTAVYYCARHEDYYGFAMDYWGQGTLVTVSS
VL: DIQMTQSPSSLSASVGDRVTITCKASQSVSNDVAWYQQKPGKAPKLLIYYVSNRFTGVPSRFSGSGSGTDFTLTISSLQPEDFATYFCQQAYRSPWTFGQGTKLEIK
B5: Hu41 (antibody, IgG4, V domains shown)
VH: EVQLVESGGGLVQPGGSLRLSCAASGFTFSSYHMSWVRQAPGKGLELVSAINSNVISTYYLDTVKGRFTISRDNAKNSLYLQMNSLRAEDTAVYYCARHEDYYGFAMDYWGQGTLVTVSS
VL: DIQMTQSPSSLSASVGDRVTITCKASQSVSNDVAWYQQKPGKAPKLLIYYVSNRFTGVPSRFSGSGSGTDFTLTISSLQPEDFATYFCQQAYRSPWTFGQGTKLEIK
B6: Hu42 (antibody, IgG4, V domains shown)
VH: EVQLVESGGGLVQPGGSLRLSCAASGFTFSSYHMSWVRQAPGKGLELVSAINSNVISTYYLDTVKGRFTISRDNAKNSLYLQMNSLRAEDTAVYYCARHEDYYGFAMDYWGQGTLVTVSS
VL: EIVMTQSPPTLSLSPGERVTLSCKASQSVSNDVAWYQQKPGQAPRLLIYYVSNRFTGIPARFSGSGSGTDFTLTISSLQPEDFAVYFCQQAYRSPWTFGQGTKLEIK
B7: Hu48 (antibody, IgG4, V domains shown)
VH: EVQLVESGGGLVKPGGSLRLSCAASGFTFSSYHMSWVRQAPGKGLELVSAINSNVISTYYLDTVKGRFTISRDNAKNSLYLQMNSLRAEDTAVYYCARHEDYYGFAMDYWGQGTLVTVSS
VL: EIVMTQSPPTLSLSPGERVTLSCKASQSVSNDVAWYQQKPGQAPRLLIYYVSNRFTGIPARFSGSGSGTDFTLTISSLQPEDFAVYFCQQAYRSPWTFGQGTKLEIK
B8: Hu44 (antibody, IgG4, V domains shown)
VH: EVQLVESGGGLVKPGGSLRLSCAASGFTFSSYHMSWVRQAPGKGLELVSAINSNVISTYYLDTVKGRFTISRDNAKNSLYLQMNSLRAEDTAVYYCARHEDYYGFAMDYWGQGTLVTVSS
VL: AIQMTQSPSSLSASVGDRVTITCKASQSVTNDVAWYQQKPGKAPKLLIYYVSNHYTGVPSRFSGSGSGTDFTLTISSLQPEDFATYFCQQAYRSPWTFGQGTKLEIK
B9: Hu43 (antibody, IgG4, V domains shown)
VH: EVQLVESGGGLVKPGGSLRLSCAASGFTFSSYHMSWVRQAPGKGLELVSAINSNVISTYYLDTVKGRFTISRDNAKNSLYLQMNSLRAEDTAVYYCARHEDYYGFAMDYWGQGTLVTVSS
VL: DIVMTQSPDSLAVSLGERATINCKASQSVTNDVAWYQQKPGQPPKLLIYYVSNHYTGVPDRFSGSGSGTDFTLTISSLQAEDVAVYFCQQAYRSPWTFGQGTKLEIK
B10: Hu1 (antibody, IgG4, V domains shown)
VH: EVQLVESGGGLVQPGGSLRLSCAASGFTFSSYHMSWVRQAPGKGLELVAAINSNDINTYYLDTVKGRFTISRDIAKNSLYLQMNSLRAEDTAVYYCARHEDYYGFAMDYWGQGTLVTVSS
VL: DIVMTQSPDSLAVSLGERATINCKASQSVTNDVAWYQQKPGQPPKLLIYYVSNHYTGVPDRFSGSGSGTDFTLTISSLQAEDVAVYFCQQAYRSPWTFGQGTKLEIK
notes: humanized IgG4; also called Hu-01
B11: Hu39 (antibody, IgG4, V domains shown)
VH: EVQLVESGGGLVQPGGSLRLSCAASGFTFSSYHMSWVRQAPGKGLELVSAINSNVISTYYLDTVKGRFTISRDNAKNSLYLQMNSLRAEDTAVYYCARHEDYYGFAMDYWGQGTLVTVSS
VL: EIVMTQSPPTLSLSPGERVTLSCKASQSVSNDVAWYQEKPGQAPRLLIYYVSHRFTGIPARFSGSGSGTDFTLTISSLQPEDFAVYYCHQAYRSPWTFGQGTKLEIK
B12: Hu46 (antibody, IgG4, V domains shown)
VH: EVQLVESGGGLVKPGGSLRLSCAASGFTFSSYHMSWVRQAPGKGLELVSAINSNVISTYYLDTVKGRFTISRDNAKNSLYLQMNSLRAEDTAVYYCARHEDYYGFAMDYWGQGTLVTVSS
VL: DIVMTQSPDSLAVSLGERATINCKASQSVSNDVAWYQQKPGQPPKLLIYYVSHRFTGVPDRFSGSGSGTDFTLTISSLQAEDVAVYFCHQAYRSPWTFGQGTKLEIK
B13: Hu45 (antibody, IgG4, V domains shown)
VH: EVQLVESGGGLVKPGGSLRLSCAASGFTFSSYHMSWVRQAPGKGLELVSAINSNVISTYYLDTVKGRFTISRDNAKNSLYLQMNSLRAEDTAVYYCARHEDYYGFAMDYWGQGTLVTVSS
VL: EIVMTQSPPTLSLSPGERVTLSCKASQSVSNDVAWYQEKPGQAPRLLIYYVSHRFTGIPARFSGSGSGTDFTLTISSLQPEDFAVYYCHQAYRSPWTFGQGTKLEIK
B14: Hu40 (antibody, IgG4, V domains shown)
VH: EVQLVESGGGLVQPGGSLRLSCAASGFTFSSYHMSWVRQAPGKGLELVSAINSNVISTYYLDTVKGRFTISRDNAKNSLYLQMNSLRAEDTAVYYCARHEDYYGFAMDYWGQGTLVTVSS
VL: DIVMTQSPDSLAVSLGERATINCKASQSVSNDVAWYQQKPGQPPKLLIYYVSHRFTGVPDRFSGSGSGTDFTLTISSLQAEDVAVYFCHQAYRSPWTFGQGTKLEIK

Experiments:
[1] = molecular target: T1, human CD112R on Jurkat CD112R effector …; test: cell-based or functional assay
[2] = molecular target: T2, hCD112R mFC recombinant protein; test: ELISA, coated hCD112R-ECD-mFC; EC50 COM701/EC50 antibody
Description: (§1) A plate was coated with a hCD112R-ECD-mFC protein (1.5 μg/mL) at a fixed concentration, and the humanized anti-CD112R antibodies diluted in a gradient (initial concentration: 1 μg/mL, 2.5-fold gradient dilution, 12 concentration gradients in total) were added to bind to the antigen. HRP-conjugated goat anti-human antibody IgG (Fc specific) (Sigma, A0170) was subjected to a 5000-fold dilution and used as a detection antibody for detection. The color development was performed with 0.1 mg/mL TMB, and finally stopped with 2 M hydrochloric acid. The plate was read at 420 nm/620 nm. EC₅₀ was obtained by fitting with a four-parameter logistic regression (4PL) model. The […] were COM701 (anti-CD112R antibody, Compugen, obtained by expression and purification according to the sequences in US20180280506A1) and the anti-KLH hu-IgG4 antibody.

[3] = molecular target: T2, hCD112R mFC recombinant protein; test: FACS competition, hCD112R mFc on CHO CD112 cells
Description: (§2) Cells CHO CD112 overexpressing human CD112 were co-incubated with a hCD112R mFc protein solution (5 μg/mL) prepared in a staining buffer (PBS+1% FBS), and the humanized anti-CD112R antibodies or the control antibodies at different concentrations (initial concentration: 100 μg/mL, 3-fold dilution, 10 concentration gradients) at 4° C. for 30 min. Unbound antibodies were then washed with a staining buffer and the cells were incubated with 1% (v/v) goat anti-mouse IgG Fc fluorescent secondary antibodies (Jackson ImmunoResearch) prepared in a staining buffer at 4° C. for 30 min in the dark. Finally, the cells were collected by using a flow cytometer (BD Canto II), and the fluorescent antibodies bound to the cell surface were detected. Raw data were analyzed by using FlowJo to obtain MFI values, and a four-parameter curve fitting was performed by using GraphPad Prism software to obtain IC₅₀ values. The positive control and the negative control were COM701 (anti-CD112R antibody, Compugen, obtained by expression and purification according to the sequences in US20180280506A1) and the anti-KLH hu-IgG4 antibody, respectively.

[4] = molecular target: T2, hCD112R mFC recombinant protein; test: ELISA, coated hCD112R-ECD-mFC
Description: as §1

[5] = molecular target: T2, hCD112R mFC recombinant protein; test: FACS competition, hCD112R mFc on CHO CD112 cells; IC50 COM701/IC50 antibody
Description: as §2

Binder	EC50, CD112R/CD112 reporter [1] [µg/mL]	Relative activity (%), EC50 COM701/EC50 antibody [1] [%]	Relative activity (%) [2] [%]	IC50 [3]	EC50 [4] [µg/mL]	Relative activity (%) [5] [%]
B1	0.0355	182	–	–	–	–
B2	0.0263	209	122	3.39 µg/mL and 2.51 µg/mL	0.00466	–
B3	0.0337	192	–	–	–	–
B4	0.039	190	–	–	–	–
B5	0.0267	243	–	–	–	–
B6	0.0355	183	–	–	–	–
B7	0.0421	176	–	–	–	–
B8	0.0387	174	–	–	–	–
B9	0.0426	158	–	–	–	–
B10	0.0688	92	154	4.31 µg/mL	0.00276	92.2
B11	0.0217	254	–	–	–	–
B12	0.0269	249	–	–	–	–
B13	0.0256	261	–	–	–	–
B14	0.0242	227	–	–	–	–
